Test results as given in the nanobody polyreactivity screen of Harvey et al. (2022).

Assay: yeast display, Sf9 membrane polyspecificity reagent, FACS + sequencing; frameworks hold sequencing errors
Outline: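 Genes from sorted yeast were amplified by colony PCR, read by MiSeq 2 × 250 sequencing and filtered on CDR length. These cells carried a synthetic nanobody library in Saccharomyces cerevisiae BJ5465 and were sorted by FACS into low and high (top ~1%) gates on anti-HA and streptavidin fluorescence. Polyreactivity is labelled according to the gate of origin.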

Row | Sequence | polyreactivity (PSR sort gate)
1 | QVQLVESGGGLVQAGGSLRLSSDASGRILAGYAMGWYRQAPGKERELVAAITRGGTTYYADYVKGRFTISRDNAKNTVYLQINSMKPEDTAVVYTVSSAQYDFWGQGTQVTVSS | low polyreactivity
2 | QVQLVESGGGLVQAGGSLRLSSDASGSIFTAYSIGWYRQAPGKERELVADITQSAGSTYADSVKGRFTISRDNAKNTVYLQMNSLKPADTAVYYCAARYRYPYYARYGYWGQGTQVTVSS | high polyreactivity
3 | QVQLVESGGGLVQAGGSLRLSSPASGITFDKYAMGWYRQAPGKERELVAAISRSAGSTYYADSVKGRFTISRDNEKYSVYLQMKSLKPEDCAVYLCAGDPLIYDDYYWGQGTNVTVSS | high polyreactivity
4 | QVQLVESGGGLVQAGGSLRLSSPASGLIFGAYAMGWYRQERGKERELVAAISYSGGRTYYADSVKGRFTMSRDNAKNTVYLQLNSLKPEDTAVYYCNALWYLSLSYRYDYWGQGTQVTVSS | high polyreactivity
5 | QVQLVESGGGLVQAGGSLRLSSPASGSIFITYAMGWYRQAPGKESELVAAIRDSGDRTYYADSVKGRFTISRDNAKKTVYFQMNSLKPEDTAVYYCNARWQEPLKYDYWGQGTQVTVSS | low polyreactivity
6 | QVQLVESGGGLVQAGGSLRLSSPDSGYIFLPYTMGWYRQAHGKERELVASITWRGTNTYYADSVKGRFTISRDNAKNTVYLQMNSLKPEDTAGYYCTKVPTYWDPNYYYWGQGTQVTVSS | high polyreactivity
7 | QVQLVESGGGLVQAGGSLRLSTAASGIIFWYNAMGWYRQAPGKERELVAAISTGGSTNYADSVKGRFTISRDNAKNTVYLQMNSLKPEDTAVYYCAADWHRSYGAYDYWGQGTQVNVSS | low polyreactivity
8 | QVQLVESGGGLVQAGGSLRLSWAASGFTFKYYDMGWYRLAPGQERELVAAIDTSGGNTYYADSVKGRFTISRDNAKNTGYVQMNSLKPEETAVDYCAATVPYYHDDYWGQGTQVTVSS | low polyreactivity
9 | QVQLVESGGGLVQAGGSLRLSWAASGITLHGYAMGWYRQAPGKERELVAAITGSGGRTYYADSVKGRFTISRDNAKNTVYLQMNSLKPEDTAVYYCNAGAVYWGYSRGWYERDYWGQGTQVTVSS | high polyreactivity
10 | QVQLVESGGGLVQAGGSLRLSWAASGRIFIGYPMGWYRQAPGKERELVAAISRNGDNTYYADSVKGRFTISRDNAKNTVYLQMNSLKPEDSAVYYCAAVAYPREWKLSYEDGSWGYDYWGQGTQVTVSS | low polyreactivity
11 | QVQLVESGGGLVQAGGSLRLSWAASGRIFYFYAMGWYRQAPGKERELVASISSGGITNYADSVKGRFTISRDNAKNTVYLQMNSLKPEDTAVYYCNAGYASGKYSGGYLYGYWGQGTQVTVSS | low polyreactivity
12 | QVQLVESGGGLVQAGGSLRLSWAASGSIFFFNAMGWYRQAPGKEREFVAAITSSSGRTYYADSVKGRFTISRDNAKNTVYLQMNRLKPEDTAVYYCAAQVPEDTETVDYWGQGTQVTVSS | low polyreactivity
13 | QVQLVESGGGLVQAGGSLRLSWAASGSIFQVYAMGWYRQAPGKEREFVAAISYSGGGTYYADSVKGRFTISRDNAKNTVYLQMNSLKPEDTAVYYCAADVSGWEYDYWGQGTQVTVSS | low polyreactivity
14 | QVQLVESGGGLVQAGGSLRLSWAASGSTFEYNVMGWYRQAPGKERELVAAITQGDGGSTYYADSVKGRFTISRDNAKKTVYLQKNSLIPEDTAVYYCNAGYFTEYNSWGQGTEVTVSS | high polyreactivity
15 | QVQLVESGGGLVQAGGSLRLSYAASGSTFFFNALGWYRQAPGKERELVATISRDGSTNYADSVKGRFTISRDNAKNTVYLQINSLKPEDTAVYYCAAGWGWPYHQYDYWGQGTQVTVSS | low polyreactivity
16 | QVQLVESGGGLVQAGGSLRLTCAASARTFVGNAMGWYRQAPGKERELVAVITGSGARTYYADSVKGRFTISRDNAKNTVYLQMNSLKPEDTAVYYCAGSGYSGQYRSYYWGQGTQVTVSS | high polyreactivity
17 | QVQLVESGGGLVQAGGSLRLTCAASASIFGSAMGWSRQAPGNEMELVASTTDADSVKGRFTISRDNAKNTVYLQMNSLKPEDTSVYYCAADDWDTVEMEYWGQVTQVTVSS | low polyreactivity
18 | QVQLVESGGGLVQAGGSLRLTCAASASTFKPYAMGWDRQAPGKERELVAAINGSGGDTYYADSVKGRFTISRDNAKTTVYLQMNSLKPEDTAVYYCAAQWGYYNYWYGYWGQGSQVTVSS | low polyreactivity
19 | QVQLVESGGGLVQAGGSLRLTCAASGAIFDSYAMGWYRQAPGKEWQLVASISYRGGSTYYADSVKGRFTISRDHAKNTVYLQKNSLKPEDTAVYYCAATPGYHYRSWRYYYWGQGTLVTVSS | high polyreactivity
20 | QVQLVESGGGLVQAGGSLRLTCAASGFIFKANAMGWYRQAPGKERELVASITFGGDSTYYADSVKGRFTISRDNAKNTVYLHMNSLKPEDTAVYYCNTRRRSYRTYYYWGQGTQVTVLS | low polyreactivity
21 | QVQLVESGGGLVQAGGSLRLTCAASGFIFYNNAMGWYRQAPGKERELVASIRWSGASTYYADSVKGRFTISRDNAKNTVYLQMNSLKPEDTAVYYCAARQSRLNSYFSHRFWRYDYWGQGTQVTVSS | high polyreactivity

Row | Sequence | polyreactivity (PSR sort gate)
22 | QVQLVESGGGLVQAGGSLRLTCAASGFIFYSYAMGWYRQAPGKERELVAAISTSGGSTYYADSVKGRFTISRDNAKNTVYLQMNSLKPEDTAVYYCAVGRKFGRYRVPFVVPYEYWGQGTQVTVSS | high polyreactivity
23 | QVQLVESGGGLVQAGGSLRLTCAASGFTFARYAMGWYRQAPGKERELVAAISSNDNTSYADSVKGRFTISRDNAKNTVYLQMNSLKPEDTAVYDCAKKRYHWYGRYYYWGQGTQLTVSS | high polyreactivity
24 | QVQLVESGGGLVQAGGSLRLTCAASGFTFAYKTMGWYRQAPGKERELVAAISWSGGRTYYADSVKGRFTISRDNAKNTVYLQMNSLKPEHTAVYYCAAEFWNQYGAYDYWGQGTQVTLSS | low polyreactivity
25 | QVQLVESGGGLVQAGGSLRLTCAASGFTFGPYDMGWSRQAPGKERELVAAITDSSGSTHYADSVKGRFTISRDNAKNTVYLQMNSLKPEDTAVYYCAAQLKSHSTYGHDYWGQGTQVTVSS | low polyreactivity
26 | QVQLVESGGGLVQAGGSLRLTCAASGFTFGRYTMGWYRQAPGKERELVAAISGRGSRTYYADSVKGRFTISRDNAKNTVYLQMSSLKPVDTAVYYCAADVNVRSDMDYWGQGTQVTVSS | high polyreactivity
27 | QVQLVESGGGLVQAGGSLRLTCAASGFTFGSYAMGWNRQAPGKERELVAVITRSGRTNYADSVKGRFTISRDNAKNTVYLQMNSLKPEDTAVYYCNADDVDDEVSPDLTEMDYWGQGTQVTVSS | low polyreactivity
28 | QVQLVESGGGLVQAGGSLRLTCAASGFTFPYYAMGWYRQAPGKERELVAAIDWTGGSTYYADSVKGRFTISRDNAKNTVYLQMNSLKPEDTAVYYCNRELTSPRRWHVSRAYDYWGQGTQVTVSS | low polyreactivity
29 | QVQLVESGGGLVQAGGSLRLTCAASGFTFRYYTMGWYRQAPGTERELVARISNRGGSTYYADSVKGRFTISRDNAKNTVYLQMNSLKPEDTAVFYCAAARRYYTYYREDYYYWGQGTQVTVSS | high polyreactivity
30 | QVQLVESGGGLVQAGGSLRLTCAASGFTFSPNAMGWYRQAPGKERELVAAIDWSGDRTYYADSVKGRFTISRDNAKNTVYLQMNSLKPEDTAVYYCNVVGRSPGDYSYYYSGQGTQVTVSS | low polyreactivity
31 | QVQLVESGGGLVQAGGSLRLTCAASGGIFGINAMRWYRQAPGKERELVAAITSGDSTNYADSVKGRFTISRDNAKNTVYLQMNSLKPEDTAVYYCNADPDTYVSTITHDSWGQGTQVTVSS | low polyreactivity
32 | QVQLVESGGGLVQAGGSLRLTCAASGGILGYYAMGWYRQEQGKERELVAAISSSVGRTYYADSVKGRFTISRDNAKNSVFLQMNSLKPEDTAVYYCNKDIGRSYNYWGQGTQVTVSS | high polyreactivity
33 | QVQLVESGGGLVQAGGSLRLTCAASGIIFDTNAMGWYRQAPGKERELVATITQRGGTTYYADSVKGRFTISRDNAKNTVYLQMNSLKPEDTAVYYCNAGPVRLPYDSWGQGTQVTVSS | low polyreactivity
34 | QVQLVESGGGLVQAGGSLRLTCAASGITFGVYAMGGYRQAPGKERELVAAITRGGRTYYADSVKGRFTISRDNAKNTVYLQMNSLKPVDTAVYYCAAGFWWSSYGYWGQGTQVTVSS | high polyreactivity
35 | QVQLVESGGGLVQAGGSLRLTCAASGITFTIYAMGWYRLATGKERELVAAISWSGTSTYYADSVKGRFTISRDNAKNTVYLKMNSLKQEDTAVYYCAADYTTSQGDSELDYWGQGTQVTVSS | low polyreactivity
36 | QVQLVESGGGLVQAGGSLRLTCAASGIYFTDYAMGWYRQAPGKERELVAAISGIGSTTYYADSVKGRFTISRDNAKNTVYLQMNSLKPEDTAVYYCNALLAYTYWYDYWGQGTQVSVSS | high polyreactivity
37 | QVQLVESGGGLVQAGGSLRLTCAASGLIFGVYAMGWYRQAPGKEMELVAGISWRGSSTYYADSVKGRFTISRDYAKNTVYLQMNSLIPEDTAVYYCADVRRPSRHAYGGTAVYYWGQGTQVTVSS | high polyreactivity
38 | QVQLVESGGGLVQAGGSLRLTCAASGLTFEYYAMGWYRQAPGKERELVARISKSGVGTNYADSVKGRFTISRDHAKNTVYLQMNSLKPEDNAVYSCAARKYHYGYGYWGQGTQVTVSS | high polyreactivity
39 | QVQLVESGGGLVQAGGSLRLTCAASGNTFYPYAMGWYRQGPGKERELVAAITSSGGSTYYADSVKGRFTISRDNANNTVYLQMNSLKPEDTAVYYCAADPDWYSPFKYVYWGQGTQVTVSS | low polyreactivity
40 | QVQLVESGGGLVQAGGSLRLTCAASGRIFAHYAMGWYRPAPGKERELVAAISSGGSTYYADSVKGRFTISRDNAKNTVYLLMNSLKPEDTAVYYCNKRPVRRKYDYWGQGTQVTVSS | low polyreactivity
41 | QVQLVESGGGLVQAGGSLRLTCAASGRIFAYYAMGWSRQAPGKERELVAAISSGGTTNYADSVKGRFTISRDNAKNTVYLQLTSLKPEDTAVYYCNADGWRRSRQYYYWGQGTQVTVSS | low polyreactivity
